From IntAct's records for PubMed 21765415

B1: Inhibitor of nuclear factor kappa-B kinase subunit alpha (Homo sapiens), O15111 (parent)
chain: MERPPGLRPGAGGPWEMRERLGTGGFGNVCLYQHRELDLKIAIKSCRLELSTKNRERWCHEIQIMKKLNHANVVKACDVPEELNILIHDVPLLAMEYCSGGDLRKLLNKPENCCGLKESQILSLLSDIGSGIRYLHENKIIHRDLKPENIVLQDVGGKIIHKIIDLGYAKDVDQGSLCTSFVGTLQYLAPELFENKPYTATVDYWSFGTMVFECIAGYRPFLHHLQPFTWHEKIKKKDPKCIFACEEMSGEVRFSSHLPQPNSLCSLVVEPMENWLQLMLNWDPQQRGGPVDLTLKQPRCFVLMDHILNLKIVHILNMTSAKIISFLLPPDESLHSLQSRIERETGINTGSQELLSETGISLDPRKPASQCVLDGVRGCDSYMVYLFDKSKTVYEGPFASRSLSDCVNYIVQDSKIQLPIIQLRKVWAEAVHYVSGLKEDYSRLFQGQRAAMLSLLRYNANLTKMKNTLISASQQLKAKLEFFHKSIQLDLERYSEQMTYGISSEKMLKAWKEMEEKAIHYAEVGVIGYLEDQIMSLHAEIMELQKSPYGRRQGDLMESLEQRAIDLYKQLKHRPSDHSYSDSTEMVKIIVHTVQSQDRVLKELFGHLSKLLGCKQKIIDLLPKVEVALSNIKEADNTVMFMQGKRQKEIWHLLKIACTQSSARSLVGSSLEGAVTPQTSAWLPPTSAEHDHSLSCVVTPQDGETSAQMIEENLNCLGHLSTIIHEANEEQGNSMMNLDWSWLTE

Variants of: B1
Conditions: with taxb1_human TAX1BP1, Q86VP1
taxb1_human TAX1BP1, Q86VP1, sequence (Q86VP1 whole entry): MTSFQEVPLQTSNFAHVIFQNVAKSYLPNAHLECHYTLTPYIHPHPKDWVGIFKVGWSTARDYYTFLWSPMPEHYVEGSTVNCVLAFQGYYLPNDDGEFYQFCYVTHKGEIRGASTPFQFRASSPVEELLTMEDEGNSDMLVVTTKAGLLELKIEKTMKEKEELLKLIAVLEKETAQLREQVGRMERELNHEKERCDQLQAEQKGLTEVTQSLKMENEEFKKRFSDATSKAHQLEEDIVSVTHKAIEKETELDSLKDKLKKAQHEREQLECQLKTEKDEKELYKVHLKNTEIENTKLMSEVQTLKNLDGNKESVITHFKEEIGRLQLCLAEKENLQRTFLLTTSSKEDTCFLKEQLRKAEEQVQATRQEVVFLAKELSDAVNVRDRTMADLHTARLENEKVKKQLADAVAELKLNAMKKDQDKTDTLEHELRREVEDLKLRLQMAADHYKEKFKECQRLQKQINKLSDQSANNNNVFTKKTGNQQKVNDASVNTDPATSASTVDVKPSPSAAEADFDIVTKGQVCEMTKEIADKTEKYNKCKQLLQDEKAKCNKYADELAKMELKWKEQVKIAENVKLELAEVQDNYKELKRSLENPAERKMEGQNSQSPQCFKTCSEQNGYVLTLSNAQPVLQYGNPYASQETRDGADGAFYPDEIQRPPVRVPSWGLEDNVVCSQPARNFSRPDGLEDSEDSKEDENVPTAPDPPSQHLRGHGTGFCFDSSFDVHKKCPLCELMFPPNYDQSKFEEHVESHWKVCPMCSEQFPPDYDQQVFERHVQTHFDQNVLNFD

Variant | effect of a mutation on the interaction
K44M | disrupting interaction
